Measurements reported in publication doi:10.1101/2023.07.10.548257 (bioRxiv, 2024).
Numbering of substitutions follows the chain as printed. No end group written: not given here.

Assays:
[1] = target: SHP2 N-SH2 domain, wild type (N-SH2-Avi-biotin) (UniProt Q06124); assay: peptide display screen (pTyr-Var Library); settings: N = 2 independent library transformations and screens; parent: est. 1.0; read off a plot
SHP2 N-SH2^WT domain = target: T1, SHP2 N-SH2^WT domain (Homo sapiens, UniProt Q06124); assay: SH2 specificity profiling by bacterial peptide display (Human pTyr and pTyr-Var Libraries), N-SH2 WT; format: binding; settings: for >3.2 --> N-WT-Ave: average enrichment score above cutoff of 3.2 (true binder); for N-WT-Ave (enrichment score): bacterial peptide display, enzymatically phosphorylated displayed peptides, SH2-coated beads, deep sequencing, frequency in enriched sample / input, average, Human pTyr Library N = 3, pTyr-Var Library N = 2
T1 construct: SHP2 SH2 domains were cloned into a His6-SUMO-SH2-Avi construct; His6-SUMO (N, cleaved yes); made in house; host or cells: E. coli C43(DE3), co-expressed with BirA
T1 sequence (Q06124 6-102 limits assumed): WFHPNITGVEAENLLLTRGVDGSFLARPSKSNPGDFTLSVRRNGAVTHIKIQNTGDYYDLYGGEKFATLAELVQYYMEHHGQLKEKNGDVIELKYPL
Description: (§1) Next, we characterized the sequence specificity of the SH2 mutants relative to their wild-type counterparts in a large-scale, unbiased screen. […] For each peptide in a library, an enrichment score is calculated from the deep sequencing data as the frequency of the peptide in the SH2-enriched sample divided by the frequency of the peptide in the unenriched input sample ([34]). For this study, we used two largely non-overlapping libraries, both encoding known human phosphosites. […] The Human pTyr Library consists of 1,916 sequences derived from known phosphorylation sites in the human proteome, along with another 617 control mutants ([35]). […]
(§2) SH2 specificity profiling using bacterial peptide display
(§3) Preparation of bacterial cells
(§4) Electrocompetent MC1061 cells were transformed with ~100 ng of the respective library. After 1 hour recovery in 1 mL LB, cells were further diluted into 250 mL LB + 0.1% chloramphenicol. 1.8 mL of overnight culture was used to inoculate 100 mL LB + 0.1% chloramphenicol, and grown until OD600 reached 0.5. 20 mL of cell suspension was induced at 25 °C using a final concentration of 0.4% arabinose until the OD600 ~ 1 (after approximately 4 hours). The cells were spun down at 4000 rpm for 15 minutes, and the pellet was resuspended in PBS so that the OD600 ~1.5. The cells were stored in the fridge and used within a week.
(§5) For each sample, 75 μL of Dynabeads™ FlowComp™ Flexi Kit were washed twice in 1 mL SH2 buffer (50 mM HEPES pH 7.5, 150 mM NaCl, 1 mM TCEP, and 0.2% BSA) on a magnetic rack.
(§6) The beads were then resuspended in 75 μL of SH2 buffer. SH2 domains were thawed quickly and 20 μM of protein was added to the beads. SH2 buffer was added up to 150 μL, and the suspension was incubated for 1 hour at 4 °C while rotating. After 1 hour, the suspension was placed on a magnetic rack and washed twice with 1 mL SH2 buffer.
(§7) Preparing the phosphorylated cells
(§8) 150 μL of prepared cells per sample were spun down for 4000 rpm for 5 minutes at 4 °C.
(§9) Kinase screen buffer was prepared (50 mM Tris, 10 mM magnesium chloride, 150 mM sodium chloride; add 2 mM sodium orthovanadate and 1 mM TCEP fresh) and the cells of each sample were resuspended in 100 μL kinase screen buffer. Kinases c-Src, c-Abl, AncSZ, Eph1B were added to a final concentration of 2.5 µM each, creatine phosphate was added to a final concentration of 5 mM, and phosphokinase was added to a final concentration of 50 µg/mL. The suspension was incubated at 37 °C for 5 minutes before ATP was added to a final concentration of 1 mM. This mixture was incubated at 37 °C for 3 hours. After 3 hours, EDTA was added to a final concentration of 25 mM to quench the reaction. The input library control sample was not phosphorylated. These cells were spun down at 4000 rpm for 15 minutes at 4 °C. The cells were then resuspended in 100 µL of SH2 buffer + 0.1% BSA. Phosphorylation of the cells was confirmed by labeling with the PY20-PerCP-eFluor 710 pan-phosphotyrosine antibody followed by analysis via flow cytometry.
(§10) Enriching for cells displaying high-affinity phosphopeptide ligands
(§11) 100 μL of phosphorylated cells were mixed with 75 µL SH2-beads for 1 hour at 4 °C while rotating. After 1 hour, samples were placed on a magnetic rack, supernatant was removed and 1 mL SH2 buffer was added to each sample. This was rotated for 30 minutes at 4 °C to wash the beads.
(§12) After this wash, the beads were placed on a magnetic rack, the supernatant was removed and 50 µL […]
(§13) Preparing sequencing samples & deep sequencing
(§14) All SH2-selected samples and the input library control were resuspended in 50 µL MilliQ water, vortexed, and boiled for 10 minutes at 100 °C. The boiled lysate was used as the DNA template in a PCR reaction using the TruSeq-eCPX-Fwd and TruSeq-eCPX-Rev primers. The mixture resulting from this PCR was used directly into a second PCR to append Illumina sequencing adaptors and Supplementary Information - page 5 of 18 […]
(§15) unique 5’ and 3’ indices to each sample (D700 and D500 series primers). The resulting PCR mixtures […]

SHP2 C-SH2^E139D domain = target: T2, SHP2 C-SH2^E139D domain (Homo sapiens, UniProt Q06124, E139D); assay: SH2 specificity profiling by bacterial peptide display (Human pTyr and pTyr-Var Libraries), C-SH2 E139D; format: binding; settings: for >3.2 --> C-E139D-Ave: average enrichment score above cutoff of 3.2 (true binder); for C-E139D-Ave (enrichment score): bacterial peptide display, frequency in enriched sample / input, average, Human pTyr Library N = 3, pTyr-Var Library N = 2
T2 construct: SHP2 SH2 domains were cloned into a His6-SUMO-SH2-Avi construct; His6-SUMO (N, cleaved yes); made in house; host or cells: E. coli C43(DE3), co-expressed with BirA
T2 sequence (Q06124 112-216 E139D limits assumed): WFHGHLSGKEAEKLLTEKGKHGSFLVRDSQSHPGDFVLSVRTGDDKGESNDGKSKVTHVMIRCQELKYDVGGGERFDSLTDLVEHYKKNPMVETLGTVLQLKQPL
Description: as §1, §2, §3, §4, §5, §6, §7, §8, §9, §10, §11, §12, §13, §14, §15

SHP2 C-SH2^WT domain = target: T3, SHP2 C-SH2^WT domain (Homo sapiens, UniProt Q06124); assay: SH2 specificity profiling by bacterial peptide display (Human pTyr and pTyr-Var Libraries), C-SH2 WT; format: binding; settings: for >3.2 --> C-WT-Ave: average enrichment score above cutoff of 3.2 (true binder); for C-WT-Ave (enrichment score): bacterial peptide display, frequency in enriched sample / input, average, Human pTyr Library N = 3, pTyr-Var Library N = 2
T3 construct: SHP2 SH2 domains were cloned into a His6-SUMO-SH2-Avi construct; His6-SUMO (N, cleaved yes); made in house; host or cells: E. coli C43(DE3), co-expressed with BirA
T3 sequence (Q06124 112-216 limits assumed): T2 sequence (Q06124 112-216 E139D limits assumed) with D28E
Description: as §1, §2, §3, §4, §5, §6, §7, §8, §9, §10, §11, §12, §13, §14, §15

full-length SHP2^T42A = target: T4, full-length SHP2^T42A (Homo sapiens, UniProt Q06124, T42A); assay: SHP2 activation assay using phosphopeptides (DiFMUP), SHP2 T42A; format: biochemical; settings: activation of full-length SHP2 T42A (0.05 nM) by phosphopeptide; DiFMUP substrate; HEPES pH 7.2 assay buffer; mean of N (column N)
T4 construct: Full-length SHP2 constructs were diluted in assay buffer; His6-TEV (N, cleaved yes); made in house; host or cells: E. coli BL21(DE3)
T4 sequence (Q06124 1-593 T42A): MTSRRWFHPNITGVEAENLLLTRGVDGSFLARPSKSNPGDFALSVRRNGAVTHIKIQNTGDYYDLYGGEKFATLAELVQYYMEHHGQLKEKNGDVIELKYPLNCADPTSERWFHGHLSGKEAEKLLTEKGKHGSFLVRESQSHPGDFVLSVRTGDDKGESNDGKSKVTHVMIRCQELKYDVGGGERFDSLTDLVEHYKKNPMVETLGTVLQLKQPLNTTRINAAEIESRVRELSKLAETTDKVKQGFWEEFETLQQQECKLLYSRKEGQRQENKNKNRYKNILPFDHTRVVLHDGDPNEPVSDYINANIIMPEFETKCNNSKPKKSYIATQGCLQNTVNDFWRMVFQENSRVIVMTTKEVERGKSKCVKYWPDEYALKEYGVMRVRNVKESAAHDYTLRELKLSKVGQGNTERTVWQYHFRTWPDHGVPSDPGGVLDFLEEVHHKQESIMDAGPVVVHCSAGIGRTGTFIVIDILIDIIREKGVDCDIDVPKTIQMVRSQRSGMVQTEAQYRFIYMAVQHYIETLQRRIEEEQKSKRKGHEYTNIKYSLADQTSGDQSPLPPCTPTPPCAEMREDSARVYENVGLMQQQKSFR

full-length SHP2^WT = target: T5, full-length SHP2^WT (Homo sapiens, UniProt Q06124); assay: SHP2 activation assay using phosphopeptides (DiFMUP), SHP2 WT; format: biochemical; settings: activation of full-length SHP2 WT (0.05 nM) by phosphopeptide; DiFMUP substrate; 60 mM HEPES pH 7.2, 75 mM KCl, 75 mM NaCl, 1 mM EDTA, 0.05% Tween-20, 0.5 mM TCEP; fluorescence read every 25 s for 6 min; mean of N (column N)
T5 construct: Full-length SHP2 constructs were diluted in assay buffer; His6-TEV (N, cleaved yes); made in house; host or cells: E. coli BL21(DE3)
T5 sequence (Q06124 1-593): T4 sequence (Q06124 1-593 T42A) with A42T
Description: SHP2 activation assays using phosphopeptides
Full-length SHP2 constructs were diluted in assay buffer (60 mM HEPES pH 7.2, 75 mM KCl, 75 mM NaCl,1 mM EDTA, 0.05% Tween-20, with 0.5 mM TCEP freshly added) to a 2X concentration of 0.1 nM. Peptides were serially diluted in assay buffer, with the last point of the concentration series fully without peptide. 15 μL of peptide and 15 μL of 800 μM DiFMUP was added to a black 96-well half area plate. Right before starting the plate reader assay, 30 μL SHP2 was added to each well a Supplementary Information - page 4 of 18 […]
final concentration of 0.05nM. Kinetic measurements (Ex 358/Em […]) were taken on a BioTek Neo2 plate reader every 25 seconds for 6 minutes. […]
OD600 reached 0.5. 20 mL of cell suspension was induced at 25 °C using a final concentration of 0.4% arabinose until the OD600 ~ 1 (after approximately 4 hours). The cells were spun down at 4000 rpm for 15 minutes, and the pellet was resuspended in PBS so that the OD600 ~1.5. The cells were stored in the fridge and used within a week.
as §5, §6, §7, §8, §9, §10, §11, §12, §13
All SH2-selected samples and the input library control were resuspended in 50 µL MilliQ water, vortexed, and boiled for 10 minutes at 100 °C. The boiled lysate was used as the DNA template in a PCR reaction using the TruSeq-eCPX-Fwd and TruSeq-eCPX-Rev primers. The mixture resulting from this PCR was used directly into a second PCR to append Illumina sequencing adaptors and Supplementary Information - page 5 of 18

enrichment (fselected / finput) [1] | >3.2 --> N-WT-Ave (SHP2 N-SH2^WT domain) | N-WT-Ave (enrichment score) (SHP2 N-SH2^WT domain) | >3.2 --> C-E139D-Ave (SHP2 C-SH2^E139D domain) | C-E139D-Ave (enrichment score) (SHP2 C-SH2^E139D domain) | >3.2 --> C-WT-Ave (SHP2 C-SH2^WT domain) | C-WT-Ave (enrichment score) (SHP2 C-SH2^WT domain) | Molecule | EC50 (full-length SHP2^T42A) [nM] | EC50 (full-length SHP2^WT) [nM]
1.5 | – | – | – | – | – | – | MERTK pTyr 872 peptide QADVI-pY-VNTQL I871T | – | –
– | FALSE (>3.2 -->) | 0.8269 | FALSE (>3.2 -->) | 0.911 | FALSE (>3.2 -->) | 0.8786 | MKGDYHRYLAEFATG (also: phosphorylated, site not given here) [1433E_HUMAN_131] | – | –
– | FALSE (>3.2 -->) | 0.7788 | FALSE (>3.2 -->) | 0.7738 | FALSE (>3.2 -->) | 0.6613 | MKGDAHRYLAEFATG (bacterially displayed) [1433E_HUMAN_131_YA] | – | –
– | – | – | – | – | – | – | CC[C@H](C)[C@H](NC(=O)[C@@H](NC(=O)[C@H](C)NC(=O)[C@H](Cc1ccc(OP(=O)(O)O)cc1)NC(=O)[C@@H](NC(=O)[C@@H]1CCCN1C(=O)[C@H](CCC(=O)O)NC(=O)[C@@H]1CCCN1C(=O)[C@H](CO)NC(=O)[C@H](C)NC(C)=O)[C@@H](C)CC)[C@@H](C)O)C(=O)N[C@@H](CC(=O)O)C(=O)N[C@@H](Cc1ccccc1)C(=O)N[C@@H](CC(=O)O)C(N)=O | 1460 | 2820
